Common to all, as to assay: ITC
Background: ITC needs no label: the signal is the heat of the interaction.

One data set addresses T1, yedK C2A (Escherichia coli (gene from BL21 …, UniProt P76318 2-222, C2A)).
T1 sequence: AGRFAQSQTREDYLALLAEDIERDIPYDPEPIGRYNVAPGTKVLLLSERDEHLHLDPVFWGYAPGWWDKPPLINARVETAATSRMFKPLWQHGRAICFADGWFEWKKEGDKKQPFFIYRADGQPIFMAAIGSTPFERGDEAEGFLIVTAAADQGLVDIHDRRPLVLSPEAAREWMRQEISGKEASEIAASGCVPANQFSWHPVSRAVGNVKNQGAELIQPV

Another data set concerns the target T2, yedK T149A (Escherichia coli (gene from BL21 …, UniProt P76318 2-222, T149A)).
T2 sequence: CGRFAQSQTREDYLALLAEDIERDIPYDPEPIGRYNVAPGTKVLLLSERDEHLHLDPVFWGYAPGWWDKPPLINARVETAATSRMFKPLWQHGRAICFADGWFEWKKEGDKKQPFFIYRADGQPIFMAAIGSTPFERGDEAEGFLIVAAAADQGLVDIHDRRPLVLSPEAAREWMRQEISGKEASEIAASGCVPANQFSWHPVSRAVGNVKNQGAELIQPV

The target in another data set is T3, yedK WT (Escherichia coli (gene from BL21 …, UniProt P76318 2-222)).
T3 sequence: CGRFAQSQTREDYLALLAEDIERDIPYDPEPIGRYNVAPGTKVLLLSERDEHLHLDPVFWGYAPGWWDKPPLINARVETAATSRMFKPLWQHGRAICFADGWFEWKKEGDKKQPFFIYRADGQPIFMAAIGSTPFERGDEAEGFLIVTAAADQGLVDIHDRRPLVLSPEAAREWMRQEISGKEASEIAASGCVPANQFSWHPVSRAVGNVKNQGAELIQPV

A further data set has as its target T4, yedK R162A (Escherichia coli (gene from BL21 …, UniProt P76318 2-222, R162A)).
T4 sequence: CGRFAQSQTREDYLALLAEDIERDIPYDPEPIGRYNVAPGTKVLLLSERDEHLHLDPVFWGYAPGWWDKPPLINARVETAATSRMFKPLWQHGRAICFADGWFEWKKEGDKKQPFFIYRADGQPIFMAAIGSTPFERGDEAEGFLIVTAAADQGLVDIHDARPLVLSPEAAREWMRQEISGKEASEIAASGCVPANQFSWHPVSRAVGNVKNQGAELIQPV

A further data set concerns the target T5, yedK K70A (Escherichia coli (gene from BL21 …, UniProt P76318 2-222, K70A)).
T5 sequence: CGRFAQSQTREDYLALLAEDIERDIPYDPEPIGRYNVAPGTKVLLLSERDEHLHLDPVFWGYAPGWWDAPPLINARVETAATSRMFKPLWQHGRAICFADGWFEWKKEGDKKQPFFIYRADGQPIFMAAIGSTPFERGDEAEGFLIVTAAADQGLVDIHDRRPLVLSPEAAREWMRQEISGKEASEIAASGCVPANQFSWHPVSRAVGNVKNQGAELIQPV

In the next data set the target is T6, yedK K113A (Escherichia coli (gene from BL21 …, UniProt P76318 2-222, K113A)).
T6 sequence: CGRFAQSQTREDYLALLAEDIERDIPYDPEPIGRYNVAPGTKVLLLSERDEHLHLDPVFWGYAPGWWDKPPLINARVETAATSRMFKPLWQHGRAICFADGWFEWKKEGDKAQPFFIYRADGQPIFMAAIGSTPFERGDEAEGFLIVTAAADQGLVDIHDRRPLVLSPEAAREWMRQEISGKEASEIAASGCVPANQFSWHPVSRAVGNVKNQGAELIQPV

The next data set deals with T7, yedK W106A (Escherichia coli (gene from BL21 …, UniProt P76318 2-222, W106A)).
T7 sequence: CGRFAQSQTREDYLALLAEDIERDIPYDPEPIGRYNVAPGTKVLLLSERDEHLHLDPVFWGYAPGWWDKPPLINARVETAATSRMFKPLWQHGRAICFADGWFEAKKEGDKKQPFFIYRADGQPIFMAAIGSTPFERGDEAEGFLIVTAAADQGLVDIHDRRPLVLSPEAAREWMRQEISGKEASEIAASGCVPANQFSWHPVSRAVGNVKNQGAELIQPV

The next data set concerns the target T8, yedK R4A (Escherichia coli (gene from BL21 …, UniProt P76318 2-222, R4A)).
T8 sequence: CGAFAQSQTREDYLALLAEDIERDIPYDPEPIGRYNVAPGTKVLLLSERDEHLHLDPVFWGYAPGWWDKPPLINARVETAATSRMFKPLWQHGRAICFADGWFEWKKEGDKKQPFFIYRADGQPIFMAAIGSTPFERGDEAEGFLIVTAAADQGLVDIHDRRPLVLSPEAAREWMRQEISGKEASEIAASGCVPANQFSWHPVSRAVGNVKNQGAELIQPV

In the case of CGGTCGATTC (ssDNA) [ssDNA], the Kd (in general, the constant that tells how readily two partners part at equilibrium) with yedK C2A amounted to 7.9 µM; with yedK WT, 2.2 µM; with yedK K70A, 4 µM; in the data set with yedK K113A, 2.1 µM; in the data set with yedK W106A, 18.7 µM; with yedK R4A it was 34.6 µM. Moreover, the binding result with yedK T149A and in the data set with yedK R162A was “no binding” in each case.

The record behind these values is PMC6821365.
